Source: US20120128704A1 (published 2012)

B1: SW-Surv-72 (TCR, V domains shown)
Valpha: AQKITQTQPGMFVQEKEAVTLDCTYDTSDQSYGLFWYKQPSSGEMIFLIYQGSYDEQNATEGRYSLNFQKARKSANLVISASQLGDSAMYFCAMREGGGYNKLIFGAGTRLAVHP
Vbeta: SQTIHQWPATLVQPVGSPLSLECTVEGTSNPNLYWYRQAAGRGLQLLFYSVGIGQISSEVPQNLSASRPQDRQFILSSKKLLLSDSGFYLCAGQDLNTEAFFGQGTRLTVV
B2: SW-Surv-66 (TCR, V domains shown)
Valpha: GENVEQHPSTLSVQEGDSAVIKCTYSDSASNYFPWYKQELGKRPQLIIDIRSNVGEKKDQRIAVTLNKTAKHFSLHITETQPEDSAVYFCAARAGNMLTFGGGTRLMVKP
Vbeta: SQTIHQWPATLVQPVGSPLSLECTVEGTSNPNLYWYRQAAGRGLQLLFYSVGIGQISSEVPQNLSASRPQDRQFILSSKKLLLSDSGFYLCAWGTGLALYEQYFGPGTRLTVT
B3: SW-Surv-22 (TCR, V domains shown)
Valpha: EDQVTQSPEALRLQEGESSSLNCSYTVSGLRGLFWYRQDPGKGPEFLFTLYSAGEEKEKERLKATLTKKESFLHITAPKPEDSATYLCAVQAYSNSGYALNFGKGTSLLVTP
Vbeta: SAVISQKPSRDICQRGTSLTIQCQVDSQVTMMFWYRQQPGQSLTLIATANQGSEATYESGFVIDKFPISRPNLTFSTLTVSNMSPEDSSIYLCSVEDSYGYTFGSGTRLTVV

Biological target: T1, survivin peptide on HLA-A*02:01 (human)
T1 peptide: LMLGEFLKL
Assay: multimer staining
Procedure: Up to 1×10⁶ of cells were incubated in 50 μl volume for 25 min with 4 μg PE-labeled multimer on ice in the dark. For sorting, up to 5×10⁶ cells were incubated with 12 μg multimer in 100 μl PBS+0.5% human serum. CD8-APC antibody was then added at 1/50 for an additional 25 min. After staining cells were washed twice and either fixed in FACS buffer with 1% paraformaldehyde and analysed by flow cytometry using a FACSCalibur (BD Biosciences) or diluted in PBS+0.5% human serum with PI for sorting. 20-50×10⁶ total cells per priming culture were stained for sorting. PI-negative cells were gated and CD8⁺multimer⁺ T cells were sorted on a FACSAria cell sorter (BD Biosciences) with a 70 μm nozzle, at a rate of 15,000 events/s. […] Pentamer staining was performed according to the manufacturer's instructions.

Row | Binder | binding result
1 | B1 | recognises
2 | B2 | recognises
3 | B3 | recognises
